# Square brackets hold non-standard residues; d marks the D form. * marks the point of attachment. Biotin = O=C1N[C@H]2[C@H](CS[C@H]2CCCCC(=O)*)N1; pY = N[C@@H](Cc1ccc(OP(=O)(O)O)cc1)C(=O)O; pT = C[C@@H](OP(=O)(O)O)[C@H](N)C(=O)O; pS = N[C@@H](COP(=O)(O)O)C(=O)O
# B1: BRCT-pS (peptide)
# peptide: Biotin-SGSAYDI[pS]QVFPFAKKK-NH2
# SMILES: CC[C@H](C)[C@H](NC(=O)[C@H](CC(=O)O)NC(=O)[C@H](Cc1ccc(O)cc1)NC(=O)[C@H](C)NC(=O)[C@H](CO)NC(=O)CNC(=O)[C@H](CO)NC(=O)CCCC[C@@H]1SC[C@@H]2NC(=O)N[C@@H]21)C(=O)N[C@@H](COP(=O)(O)O)C(=O)N[C@@H](CCC(N)=O)C(=O)N[C@H](C(=O)N[C@@H](Cc1ccccc1)C(=O)N1CCC[C@H]1C(=O)N[C@@H](Cc1ccccc1)C(=O)N[C@@H](C)C(=O)N[C@@H](CCCCN)C(=O)N[C@@H](CCCCN)C(=O)N[C@@H](CCCCN)C(N)=O)C(C)C
# notes: also called Biotin-BRCT-pS
# Experiments:
# [1] = target: Rad9-pT peptide with SGS linker (SGS-SLEVp…) (yeast); assay: FTS assay, 4 µM protein, 50 µM pT peptide
# [2] = target: Rad9-pT peptide with SGS linker (SGS-SLEVp…) (yeast); assay: FTS assay, 4 µM protein, 250 µM pT peptide
# [3] = target: Rad9 pT peptide used for ITC (SLEVp…) (yeast); assay: ITC
# [4] = target: Rad9 pT peptide used for ITC (SLEVp…) (yeast); assay: ITC, pT peptide injected into 35 µM FHA1 domain, three repeats
# [5] = target: Rad9-pT peptide with SGS linker (SGS-SLEVp…) (yeast); assay: FTS assay, 1 µM protein, 50 µM pT peptide
# [6] = target: Rad9-pT peptide with SGS linker (SGS-SLEVp…) (yeast); assay: FTS assay, 1 µM protein, 250 µM pT peptide
# Rad9-pS = target: T1, Rad9-pS (SMILES …); assay: phage ELISA; biotinylated peptide on Neutravidin; anti-M13-HRP, A405 [a]
# T1 peptide: Biotin-SGSSLEV[pS]EADATFYAKK-NH2
# From the text: (§1) Binding of phage particles was detected using anti-M13 antibody conjugated to HRP. FIG. 4(b) is a graph of the results of ELISA experiments of GST fusions of the WT FHA1 domain and three of its variants, 3C-3S, 4C-4S, and D2, that bound specifically to the cognate pT peptide (Rad9-pT; shown as solid histograms) immobilized on plastic microtiter plate wells via Neutravidin. Binding was detected using anti-GST antibody conjugated to HRP. The peptide sequences for Rad9-pT, Rad9-T, Rad9-pS, Rad9-pY, Plk1-pT and BRCT-pS are SGSSLEVp[…] (SEQ ID NO: 1), […] (SEQ ID NO: 2), SGSSLEVp[…] (SEQ ID NO: 3), SGSSLEVp[…] (SEQ ID NO: 4), […]p[…] (SEQ ID NO: 5) and SGSAYDIp[…] (SEQ ID NO: 6), respectively. The peptide sequence for the WT FHA1 domain from S. cerevisiae Rad53 protein kinase includes […] (SEQ ID NO:7), which includes residues 1-170 of S. cerevisiae Rad53 (SEQ ID NO:8) (Liao et al. (2000) J. Mol. Biol 304, 941-51; Durocher et al. (1999) Mol Cell 4). […] The β-strands are labeled from 1 to 11 in the WT FHA1 domain structure and the N- and C-termini are noted.
# Plk1-pT = target: T2, Plk1-pT (SMILES …); assay: as above
# T2 peptide: Biotin-SGSAGPMQS[pT]PLNGAKK-NH2
# From the text: as §1
# Rad9-pY = target: T3, Rad9-pY (SMILES …); assay: as above
# T3 peptide: Biotin-SGSSLEV[pY]EADATFYAKK-NH2
# From the text: as §1
# BRCT-pS = target: B1; assay: phage ELISA; biotinylated peptide on Neutravidin, A405
# Method: FIG. 9A is a photograph of 96-well plates containing phage supernatants from 96 individual clones, which were isolated after three rounds of selection, heated (50° C.), cooled, and added to microtiter plate wells coated with the phosphopeptide ligand. Binding of phage particles in the wells was monitored with an anti-M13 antibody conjugated to HRP. FIG. 9B is a graph showing the ratio of the ELISA signals for individual phage clones generated with wells contained with the target protein compared to a negative control protein (background).
# Phage particles produced from 96 clones isolated after round #3, were heated at 50° C. for 3 hr and cooled to RT. The phage supernatants were then incubated with both the target peptide (500 ng/well) immobilized on NeutrAvidin (1 μg/well) coated plate wells and an unrelated target (background). Binding phage clones were detected using anti-M13 antibody conjugated to HRP (GE Healthcare). The green, colored product of the enzymatic reaction in the microtiter plate wells was measured at 405 nm using the FLUOstar OPTIMA plate reader (BMG Labtech). […] In some cases, the signal over background ratio ranged from 3 to 20 for clones (FIG. 9B).
# [7] = target: T4, Rad9-pT peptide with SGS linker (SGS-SLEVpTEADATFYAKK) (yeast, SMILES …); assay: phage ELISA, normalised to Flag
# T4 construct: also called cognate pT peptide; Rad-pT
# T4 peptide: Biotin-SGSSLEV[pT]EADATFYAKK-NH2
# From the text: Through Kunkel mutagenesis (Yaffe (2002) Nat Rev Mol Cell Bol 3, 177-86), the amino acid residue at position 34 in the β1 strand of the D2 FHA 1 domain was replaced (from the naturally-occurring V) one at a time with each of the other naturally occurring amino acids and binding to the immobilized Rad9-pT peptide was monitored by phage ELISA. Phage binding was detected using anti-M13 antibody conjugated to Horse Radish Peroxidase (HRP). […] All the variants display an N-terminal Flag peptide and the amount of phage particles used for each variant in this experiment has been normalized for this epitope.
# To amplify the phage particles displaying the recombinant FHA1 variants, TG1 bacterial cells (5 mL; Stratagene) harboring the phagemid DNA were infected at mid-log (OD₆₀₀ₙₘ=0.5-0.6) with M13K07 helper phage (New England Biolabs) at a multiplicity of infection (MOI) of 20 for 1 h at 37° C. at 150 rpm. Infected cells were centrifuged, and the pellet was resuspended in fresh Luria Bertani medium (LB: 10 g Tryptone, 5 g Yeast extract, and 10 g NaCl per liter) supplemented with 50 μg/mL carbenicillin and 50 μg/ml kanamycin, and phage were amplified overnight at 30° C. at 250 rpm. All of the phage ELISA steps were performed at room temperature. […]
# [8] = target: T5, WT FHA1 domain of S. cerevisiae Rad53, phage-displayed (protein III fusion on bacteriophage M13) (Saccharomyces cerevisiae; bacteriophage …, UniProt P22216 1-170); assay: phage ELISA; biotinylated peptide on Neutravidin; anti-M13-HRP, A405 [a]
# T5 construct: not shown: minor coat protein III (pIII, gene III product) of bacteriophage M13
# T5 sequence: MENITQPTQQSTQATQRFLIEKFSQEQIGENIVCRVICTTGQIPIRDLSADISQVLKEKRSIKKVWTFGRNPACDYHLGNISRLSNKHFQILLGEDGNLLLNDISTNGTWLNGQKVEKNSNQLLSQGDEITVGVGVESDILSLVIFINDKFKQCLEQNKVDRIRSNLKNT
# From the text: as §1
# [9] = target: T6, WT FHA1 domain, GST fusion (Saccharomyces cerevisiae, UniProt P22216 1-170); assay: ELISA with GST fusion (cell lysate); biotinylated peptide on Neutravidin; anti-GST-HRP, A405 [b]
# T6 construct: Expressed in the bacterial cytoplasm; cell lysate used in the ELISA; The order GST then FHA1 follows the pGEX-2T vector; also called GST fusion of the WT FHA1 domain; FHA1-GST fusion protein; not shown: Glutathione S-transferase (GST) of the pGEX-2T vector (GE Healthcare)
# T6 sequence: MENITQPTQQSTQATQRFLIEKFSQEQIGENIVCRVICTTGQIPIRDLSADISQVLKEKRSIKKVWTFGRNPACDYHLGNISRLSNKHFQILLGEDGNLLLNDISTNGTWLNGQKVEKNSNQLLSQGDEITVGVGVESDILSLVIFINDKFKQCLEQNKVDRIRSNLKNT
molecule,measurement,setting,value
"WT FHA1 domain, purified with C-terminal six-histidine tag (from UniProt P22216 1-170)",Tm shift in the presence of pT peptide,[1],1.95 ° C.
same,Tm shift in the presence of pT peptide,[2],3.55 ° C.
same,stoichiometry,[3],1
same,Kd,[4],1 µM
same,Tm shift in the presence of pT peptide,[5],1.7 ° C.
same,Tm shift in the presence of pT peptide,[6],3.8 ° C.
"D2 variant of the FHA1 domain, phage-displayed (protein III fusion) (designed binder, not shown: small tags and cut ends, Selected from a mutagenic library built on the 3C-3S template; one added mutation S34F; also called position 34 F variant) MENITQPTQQSTQATQRFLIEKFSQEQIGENIVFRVISTTGQIPIRDLSADISQVLKEKRSIKKVWTFGRNPACDYHLGNISRLSNKHFQILLGEDGNLLLNDISTNGTWLNGQKVEKNSNQLLSQGDEITVGVGVESDILSLVIFINDKFKQSLEQNKVDRIRSNLKNT",binding result,Rad9-pS,no binding
same,binding result,Plk1-pT,no binding
same,binding result,Rad9-pY,no binding
same,binding result,BRCT-pS,no binding
"D2 FHA1 variant with W at position 34, phage-displayed (designed binder, Made from D2 by Kunkel mutagenesis at position 34; also called S34W; not shown: N-terminal Flag peptide, cloning-site residues and M13 protein III (display carrier)) MENITQPTQQSTQATQRFLIEKFSQEQIGENIVWRVISTTGQIPIRDLSADISQVLKEKRSIKKVWTFGRNPACDYHLGNISRLSNKHFQILLGEDGNLLLNDISTNGTWLNGQKVEKNSNQLLSQGDEITVGVGVESDILSLVIFINDKFKQSLEQNKVDRIRSNLKNT",binding result,[7],no binding
B1,binding result,[8],no binding
same,binding result,[9],no binding

# Source: patent US20130225434A1 (BOARD OF TRUSTEES OF THE UNIVERSITY OF ILLINOIS, published 2013)
